Results published in patent US5648233A, “Modified tumor cytotoxic factor (TCF) and DNA encoding such” (Snow Brand Milk Products Co., Ltd., priority 1992, dated 1997).
Several values for one entry are separate records, joined by “and”; a condition that tells them apart may be missing. Equal entries are not always repeated. Where two headings read alike, the source gives them in different places.

Columns and labels:
Meth A sarcoma = assay: Tumor cytotoxic activity (MTT); assay type: cell-based; settings: Meth A cells, 5 days, serial dilution from 50 ng/mL, FIG. 9
Experimental: Tumor cytotoxic activities of TCF, TCF-3 and TCF-13 were measured. Meth A sarcoma was used as a target cell line. The cells were suspended in RPMI medium (GIBCO Co.) supplemented with 10% FCS at a final cell density of 2×10^4 cells per mL. Fifty microliters of the cell suspension was inoculated into each well in 96-well flat-bottomed microtiter plates. The purified TCF, TCF-3 and TCF-13 were serially diluted with RPMI medium from the concentration of 50 ng/mL, and the 50 μL of each diluted sample was added to each test well. After incubation at 37° C. for 5 days, MTT was added at a final concentration of 0.5 mg/ml and the plates were incubated at 37° C. Four hours later, 100 μL of the solution containing 10% SDS and […] was added to each well and left overnight at room temperature. Next day, the absorbance at 620 nm was measured as a parameter of the viable cell numbers in each well.

[1] = rat
Experimental: Anti-TCF polyclonal antibody was dissolved in 0.1M NaHCO3 solution to a final concentration of 10 μg/mL. One hundred microliters of the antibody solution was added to each well and the plates were left overnight at room temperature. The wells were filled with 50% solution of Block Ace in H2 O, incubated for 1 hour at room temperature and washed three times with washing solution (PBS containing 0.1% Tween 20 ). Plasma samples periodically collected from the rats which were intravenously injected with TCF or the modified TCFs were diluted with normal rat serum, when necessary. TCF solutions serially diluted with normal rat serum (from 10 ng/mL) was used as the standard TCF solution. Fifty microliters of the sample solution and 50 μL of the first buffer (0.2M Tris HCl pH 7.3 containing 50% Block Ace, 0.2M NaCl, 0.1% Tween 20, 0.2% CHAPS, 20 mM Benzamidine hydrochloride, and 10 mM EDTA) was mixed and added to each well. The plates were left for 3 hours at 37° C. and washed three times with the washing buffer. One hundred microliters of the peroxidase-labeled anti-TCF antibody solution, which was 400-fold diluted with 0.1M phosphate buffer pH 7.0 containing 10% Block Ace, 0.15M NaCl, 0.1% Tween 20, 4% rat serum and 0.5% mouse IgG, was added to each well. Plates were incubated for hours at 37° C. and washed three times with the washing buffer. Subsequently, 100 μL of substrate solution (0.4 mg/mL of o-phenylene diamine dihydrochloride and 0.006% H2 O2 in 0.1M citrate-phosphate buffer, pH 4.5) was added to each well and incubated at 37° C. for 30 minutes in a dark place. The enzyme reaction was stopped by addition of 50 μL of 6N H2 SO4. The absorbance at 492 nm was measured on an immuno reader (Corona Co.). Thus concentrations of the TCF or the modified TCFs in rat serum were determined.
Time course of plasma levels were examined by EIA in rats after the single intravenous injection of TCF and the modified TCFs. Hale Wister rats weighing about 200 g were used.

tumor cells = settings: background statement; cited from earlier work
normal cells = settings: background statement; cited from earlier work
[2] = background statement; cited from earlier work
[3] = single i.v. injection, 50 μg/kg, two-compartment model, Mean ± SD, *P < 0.05, **P < 0.01 vs wild-type TCF

Substance	tumor cytotoxic activity (in words) (Meth A sarcoma)	bioavailabilities (in words) ([1]; in vivo)	AUC (in words) ([1]; in vivo, iv)	CLtotal (total clearance) ([1]; in vivo, iv) [mL/min/kg]	metabolic fates (in words) ([1]; in vivo, iv)	plasma half-lives (in words) ([1]; in vivo, iv)	t1/2 α (plasma half-life of rapid phase) ([1]; in vivo, iv) [min]	t1/2 β (plasma half-life of slower phase) ([1]; in vivo, iv) [min]	total clearance (in words) ([1]; in vivo, iv)	cytotoxic activity against tumor cells (in words) (tumor cells)	growth stimulating activity for normal cells (in words) (normal cells)	half-life [2]	t1/2 α (plasma half-life of rapid phase) [1, 3]	t1/2 β (plasma half-life of slower phase) [1, 3] [min]	CLtotal (total clearance) ([1]; single i.v. injection, 50 μg/kg, Mean ± SD, **P < 0.01 vs wild-type TCF) [mL/min/kg]
TCF-3: modified TCF which lacks oligosaccharide chain 3 (Ser at 563rd replaced with Ala)	cytotoxic activities to Meth A cells in a dose-dependent manner	larger bioavailabilities	larger AUC	18.8 ± 2.1	slower metabolic fates	prolonged	2.9 ± 0.3	54.2 ± 8.3	decreased	–	–	–	–	–	–
TCF: tumor cytotoxic factor derived from human fibroblast; wild-type glycoprotein with four N-linked oligosaccharide chains	cytotoxic activities to Meth A cells in a dose-dependent manner	–	–	–	–	–	–	–	–	strong cytotoxic activity against tumor cells	growth stimulating activity for normal cells	approximately 2 minutes	2.4 ± 2.5 min and 2.4 ± 0.5 min	15.6 ± 4.6	51.5 ± 13.9
